In paper PMC9319256, “Human Enzyme PADI4 Binds to the Nuclear Carrier Importin α3” (Cells, 2022):

Experiments:
[1] = target: ΔImpα3, truncated importin α3 lacking the importin β-binding (IBB) domain (human); test: other fluorescence titration; peptide 0-20 µM added to 3 µM Impα3 or ΔImpα3; 20 mM Tris pH 7.5, 5 mM TCEP, 150 mM NaCl, 5% glycerol; 25 °C; fluorescence at 330 nm
[2] = target: human importin α3 (Impα3), intact (human); test: as above
[3] = target: ΔImpα3, truncated importin α3 lacking the importin β-binding (IBB) domain (human); test: BLI; BLItz; His-tagged Impα3 or ΔImpα3 immobilised on His-tag biosensors at 0.3 µM; peptides 1-7 µM; manufacturer's buffer; 25 °C; pseudo-first-order plots; apparent
[4] = target: human importin α3 (Impα3), intact (human); test: as above
[5] = target: ΔImpα3, truncated importin α3 lacking the importin β-binding (IBB) domain (human); test: ITC; PADI4 or peptide (100 µM) in the syringe titrated into importin (10 µM) in the cell; 20 mM Tris pH 7.5, 5 mM TCEP, 150 mM NaCl, 5% glycerol; 25 °C; single-site model
[6] = target: human importin α3 (Impα3), intact (human); test: as above

Sequence of human importin α3 (Impα3), intact (human) (O00629 whole entry, the tested form may be a part): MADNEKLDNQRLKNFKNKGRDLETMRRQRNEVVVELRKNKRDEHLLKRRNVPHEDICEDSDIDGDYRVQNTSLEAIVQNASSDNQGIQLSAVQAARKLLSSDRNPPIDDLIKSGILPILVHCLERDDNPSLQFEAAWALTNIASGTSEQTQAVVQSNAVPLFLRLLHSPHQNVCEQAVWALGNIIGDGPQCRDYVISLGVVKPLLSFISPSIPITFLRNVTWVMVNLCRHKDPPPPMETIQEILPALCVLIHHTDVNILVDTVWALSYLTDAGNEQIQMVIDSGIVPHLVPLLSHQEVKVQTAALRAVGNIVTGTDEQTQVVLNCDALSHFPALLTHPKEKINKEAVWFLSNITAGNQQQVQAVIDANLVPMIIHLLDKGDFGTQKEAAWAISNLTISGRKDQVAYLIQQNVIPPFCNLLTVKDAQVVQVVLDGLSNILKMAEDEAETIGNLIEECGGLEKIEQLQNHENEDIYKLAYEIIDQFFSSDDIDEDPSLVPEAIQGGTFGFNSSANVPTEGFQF

Kd [1]: 4 µM
Kd [2]: 4 µM
Kd [3]: 12 µM
koff [3]: 0.23 s⁻¹
kon [3]: 20000 M⁻¹ s⁻¹
Kd [4]: 99 µM
koff [4]: 0.32 s⁻¹
kon [4]: 3000 M⁻¹ s⁻¹
Ka [5]: 230000 M⁻¹
Kd [5]: 4.3 µM
dH [5]: -11.2 kcal/mol
stoichiometry N [5]: 1.1
Ka [6]: 43000 M⁻¹
Kd [6]: 23 µM
dH [6]: -35.7 kcal/mol
stoichiometry N [6]: 1.08
Binder: Ac-YKLFQEQQNEGHGEALLFEGIKKKKQQKI-NH2 [NLS2-PADI4 peptide]
